This test concerns the target BAG3 (Bcl-2 associated athanogene protein 3) (human) (UniProt O95817). As to the kind of experiment: SPR; BIACORE X; BAG3 amine-coupled to a CM5 chip (3400 RU); running buffer 10 mM HEPES pH 7.4, 150 mM NaCl, 3 mM EDTA, 0.005% P20; 10 uL/min; Langmuir 1:1 fit. For orientation: SPR reads the build-up and loss of mass on a sensor chip optically.

Experimental findings from article PMC10273338 are described below.

Chain of BAG3 (Bcl-2 associated athanogene protein 3), O95817 1-575 (natural protein; other documents disagree on this pair) (O95817 whole entry): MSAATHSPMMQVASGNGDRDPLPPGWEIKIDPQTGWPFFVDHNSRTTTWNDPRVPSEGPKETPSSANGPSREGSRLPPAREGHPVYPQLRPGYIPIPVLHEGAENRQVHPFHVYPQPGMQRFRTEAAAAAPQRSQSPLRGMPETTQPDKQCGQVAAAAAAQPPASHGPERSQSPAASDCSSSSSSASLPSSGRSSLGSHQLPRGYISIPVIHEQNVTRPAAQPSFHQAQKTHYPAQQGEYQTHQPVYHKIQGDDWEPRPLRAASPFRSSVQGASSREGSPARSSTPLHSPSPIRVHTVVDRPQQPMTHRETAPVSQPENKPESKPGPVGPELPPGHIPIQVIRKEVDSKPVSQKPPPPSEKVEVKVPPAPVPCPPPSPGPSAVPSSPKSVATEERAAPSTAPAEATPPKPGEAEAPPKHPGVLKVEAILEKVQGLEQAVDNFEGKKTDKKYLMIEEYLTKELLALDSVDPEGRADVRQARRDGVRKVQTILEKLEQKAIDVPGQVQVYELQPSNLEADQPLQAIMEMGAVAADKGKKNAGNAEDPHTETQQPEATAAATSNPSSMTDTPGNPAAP

As usually defined, the Kd is the concentration at which binding is half-saturated. A higher Kd goes with lower affinity. A word on the koff: it is the rate constant with which the complex falls apart. One may read the kon as the rate constant with which the complex forms. High values mean fast association, low ones slow association. The substance “BAG3 (Bcl-2 associated athanogene protein 3), O95817 1-575 (natural protein; other documents disagree on this pair)” showed a Ka of 5.3e+07 M⁻¹, a Kd of 19 nM, a koff of 0.0003 s⁻¹ and a kon of 16000 M⁻¹ s⁻¹.
